Experiment [1] concerns the target T1, human NMI (N-myc Interacting protein), recombinant protein (human, UniProt Q13287 1-307, limits assumed).
T1 construct: Gene ID: 9111; also called hNMI; antigen
T1 sequence (looked up): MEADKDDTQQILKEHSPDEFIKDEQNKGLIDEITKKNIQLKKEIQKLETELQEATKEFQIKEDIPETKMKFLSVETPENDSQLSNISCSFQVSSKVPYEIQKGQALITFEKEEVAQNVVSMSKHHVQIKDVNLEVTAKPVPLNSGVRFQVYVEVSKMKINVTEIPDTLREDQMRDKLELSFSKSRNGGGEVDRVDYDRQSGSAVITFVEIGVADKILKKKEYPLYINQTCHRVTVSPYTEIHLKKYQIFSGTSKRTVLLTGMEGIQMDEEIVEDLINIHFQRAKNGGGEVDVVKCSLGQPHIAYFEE
Nature of the experiment: ELISA, binding to hNMI.

Experiment [2] concerns the target T2, NMI-flag overexpressed protein (293T cells transfected with the hNMI-flag plasmid) (human) (UniProt Q13287).
T2 sequence (looked up): T1 sequence (looked up)
The experiment in a line: sandwich ELISA; detection 94C4-1-biotin; cell lysates of NMI-flag 293T, replicate 1.

For experiment [3], the target named is T3, human NMI (N-myc Interacting protein) (human) (UniProt Q13287).
T3 sequence (looked up): T1 sequence (looked up)
Nature of the experiment: magnetic-bead chemiluminescent sandwich, kit of Example 8-1; capture 98G10 beads, detection acridinium-B-8; series 2, hNMI 10000 pg/mL.

Experiment [4] concerns the target T3, human NMI (N-myc Interacting protein) (human). Nature of the experiment: magnetic-bead chemiluminescent sandwich, kit of Example 8-1; capture 98G10 beads, detection acridinium-B-8; series 3, hNMI 1000 pg/mL.
Experiment [5] shares this target. The experiment in a line: magnetic-bead chemiluminescent sandwich, kit of Example 8-1; capture 98G10 beads, detection acridinium-B-8; series 2, hNMI 5000 pg/mL.
The target is the same in experiment [6]. The experiment in a line: magnetic-bead chemiluminescent sandwich, kit of Example 8-1; capture 98G10 beads, detection acridinium-B-8; series 2, hNMI 50 pg/mL.
For experiment [7] the target is unchanged. Nature of the experiment: magnetic-bead chemiluminescent sandwich; capture 98G10 beads (1.0 mg 98G10), detection acridinium-B-8; hNMI 1000 pg/ml.
Experiment [8] shares this target. The experiment in a line: magnetic-bead chemiluminescent sandwich; capture 98G10 beads, detection acridinium-B-8 (1.0 mg B-8 labelled); hNMI 400 pg/mL.
Experiment [9] has the same target. The experiment in a line: magnetic-bead chemiluminescent sandwich; capture 98G10 beads, detection acridinium-B-8 (2.0 mg B-8 labelled); hNMI 100 pg/mL.
The target is the same in experiment [10]. Nature of the experiment: magnetic-bead chemiluminescent sandwich; capture 98G10 beads, detection acridinium-B-8 (2.0 mg B-8 labelled); hNMI 1000 pg/mL.

B1: monoclonal antibody B-8 (antibody, V domains shown)
VH: QSLEESGGDLVKPGASLTLTCTASGFSFSSSYYMCWVRQAPGKGLEWIACIYAGSSGSTYYASWAKGRFTISKTSSTTVTLQMTSLTAADTATYFCAREYSYDDYGDFWGFNLWGPGTLVTVSS
VL: ALVMTQTPSSVSAAVGGTVTINCQASQNIYTNLAWYQQKPGQPPKLLIYGASNLESGVPSRFKGSGSGTEYTLTISDLECDDAATYYCQSSLYSRIADRANAFGGGTEVVVK
notes: Rabbit monoclonal antibody; also called B8-1
B1: the EC50 in [1] amounted to 0.309 nM. For the same molecule, in experiment [2], the OD450 was 3.03 OD450.

B2: acridinium ester-labeled monoclonal antibody B-8 (antibody, V domains shown)
VH: B1 VH
VL: B1 VL
modifications: acridinium ester label on the antibody, site not stated
With B2, the Signal value stood at 1.19e+06 in experiment [3]; 131000 in experiment [4]; 560000 in [5]; 6180 in [6]; 201000 in experiment [7]; 39900 in experiment [8]. Further, the Signal value is 11900 in experiment [9] and 116000 in experiment [10].

Values taken from patent EP4682166A1 (Guangzhou Enmai Biotechnology Co., Ltd, dated 2026).
